Data on two substances can be found in patent US20110150759A1.

Test [1] addresses wtEGFR-FLAG (human) (UniProt P00533). The experiment in a line: flow cytometry on Ba/F3 cells, median fluorescence; reference M2 anti-FLAG antibody. Background: Flow cytometry measures light scatter and fluorescence of single cells or particles in a stream.
Test [2] has as its target C271A/C283A-EGFR (human) (UniProt P00533). Nature of the test: flow cytometry on Ba/F3 cells, median fluorescence, average of four independent clones; reference M2 anti-FLAG antibody.
Test [3] addresses EGFR 1-621 full length extracellular domain (human) (UniProt P00533). The experiment in a line: SPR (BIAcore), EGFR fragment 1-621 (can form tether). (In general: Surface plasmon resonance follows binding to a sensor surface in real time, without labels.)
The target in test [4] is soluble EGFR fragment 1-501 (human) (UniProt P00533). The experiment in a line: SPR (BIAcore), EGFR fragment 1-501 (unable to form tether).

Chain of monoclonal antibody 806 (VH): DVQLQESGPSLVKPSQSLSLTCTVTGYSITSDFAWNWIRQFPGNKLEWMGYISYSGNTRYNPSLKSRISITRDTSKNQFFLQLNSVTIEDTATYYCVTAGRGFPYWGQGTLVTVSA
Chain of monoclonal antibody 806 (VL): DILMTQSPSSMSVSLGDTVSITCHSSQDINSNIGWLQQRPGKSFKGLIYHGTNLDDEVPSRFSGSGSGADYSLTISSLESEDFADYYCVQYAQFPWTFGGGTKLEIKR

As to mAb 528 (antibody), the ratio of antibody binding mAb 528/M2 in test [1] came out at 1.37; in test [2], 1.08.

The Kd is the constant that tells how readily two partners part at equilibrium. Read a high Kd as a looser complex. For the substance monoclonal antibody 806, the figures for the Kd in test [3] and in test [4] were 389 nM and 34 nM, respectively.
